Results reported in US20170298331.

Experiments:
TALEN TN8 (Artificial) = assay: cell_activity; details: pair TN3/8, 17 bp spacer, preceded by 5'-T; Surveyor assay in DMD myoblasts (up to 12.7% and 6.8% in two lines)
TALEN TN3 (Artificial) = assay: cell_activity; details: pair TN3/8, 17 bp spacer, preceded by 5'-T; Surveyor assay in DMD myoblasts (up to 12.7% and 6.8% in two lines)

Sequence | activity (% modified alleles) (TALEN TN8 (Artificial)) | activity (% modified alleles) (TALEN TN3 (Artificial))
CCTTAGTAACCACAGGT (double strand) [TN8 half-site, DMD exon 51] | 12.7 | 
AGCTCCTACTCAGACT (double strand) [TN3 half-site, DMD exon 51] |  | 12.7
